Patent WO2021251460A1 (dated 2021)

Experiments:
[1] = target: T1, human Glypican-1 (human, UniProt P35052 24-530); experiment: FACS on BxPC-3 cells pre-treated with GPC1-ADC (01a033) MMAE, streptavidin-PE detection
T1 construct: Endogenous GPC1 on human cancer cell lines: BxPC-3 in the FACS and internalization assays; TE8, TE14, BxPC3, KP-2 and PK-8 in the ADC assay; also called GPC-1; GPC1
T1 sequence: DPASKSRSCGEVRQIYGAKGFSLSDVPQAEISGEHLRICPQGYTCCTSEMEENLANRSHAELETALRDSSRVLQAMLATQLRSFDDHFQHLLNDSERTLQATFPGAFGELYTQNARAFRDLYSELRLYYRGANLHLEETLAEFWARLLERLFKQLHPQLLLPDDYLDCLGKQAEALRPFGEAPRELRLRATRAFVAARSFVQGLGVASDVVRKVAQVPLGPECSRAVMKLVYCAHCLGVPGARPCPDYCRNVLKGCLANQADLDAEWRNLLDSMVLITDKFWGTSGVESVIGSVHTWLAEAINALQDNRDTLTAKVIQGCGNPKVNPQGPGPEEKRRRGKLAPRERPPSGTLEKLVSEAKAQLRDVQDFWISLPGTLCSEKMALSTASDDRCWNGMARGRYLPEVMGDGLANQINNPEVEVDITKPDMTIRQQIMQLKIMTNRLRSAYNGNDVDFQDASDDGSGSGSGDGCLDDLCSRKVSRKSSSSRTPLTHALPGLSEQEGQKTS

[2] = target: T1, human Glypican-1; experiment: FACS titration on BxPC-3 cells, FITC anti-mouse IgG secondary

B1: biotin-labeled anti-GPC1 antibody 02b006 (antibody, mouse IgG2a, kappa, V domains shown)
VH: EVQLVESGGGLVKPGGSRKLSCAASGFTFSDYGMHWVRQAPEKGLEWVAYISSGSSTIYYADTVKGRFTISRDNAKNTLFLQMTSLRSEDTAIYYCVRHSYYNYDIGGYYAMDYWGQGTSVTVSS
VL: DIVLTQSPSSLSASLGERVSLTCRASQEISGYLSWLQQKPDGTIKRLIYAASTLDSGVPKRFSGSRSGSDYSLTISSLESEDFADYYCLQYASYPLTFGAGTKLEIKR
modifications: biotin-labeled (site not given)
notes: Detection antibody for GPC1 left on the cell surface in the internalization assay, read out with streptavidin-PE; also called anti-GPC1 mAb (biotin-labeled 02b006); K090-02b006
[1]
  binding result: binds

B2: anti-GPC1 monoclonal antibody (clone K090-01a033) (antibody, mouse IgG2a, kappa, V domains shown)
VH: QVQLKQSGPELVKPGASVKISCKASGYSFTGYYMHWVKQSPEKSLEWIGEINPSTGDTTYNQKFKAKATLTVDKSSSTAYMQLKSLTSEDSAVYYCAREKRDDGVFAYWGQGTLVTVSS
VL: DIVMSQSPKSMSMSVGERVALSCKASENVGTYVSWYQQKPEQSPKLLIYGASNRYTGVPDRFTGSGSATDFTLTISSVQAEDLADYYCGQSYSYPLTFGAGTKLELKR
notes: Mouse monoclonal antibody; mouse IgG2a kappa (MOPC173) was used as its isotype control; also called mouse anti-GPC-1 clone 01a033; mouse anti-human Glypican-1 mAb (01a033)
[2]
  binding result: binds

B3: GPC1-ADC (01a033) MMAE (antibody, mouse IgG2a, kappa, V domains shown)
VH: B2 VH
VL: B2 VL
modifications: MC-vc-PAB-MMAE on reduced interchain cysteine residues; DAR 3.7 per antibody; MC-vc-PAB-MMAE (maleimidocaproyl-valine-citrulline-p-aminobenzyloxycarbonyl-monomethyl auristatin E) on reduced interchain cysteine residues; DAR 3.7 per antibody
notes: also called GPC1-ADC (MMAE); αGPC1-CL-MMAE
[2]
  binding result: binds
